According to patent publication US20090004190A1, “Rage Fusion Proteins And Methods Of Use” (priority 2006, published 2009):
Values joined by “and” are separate entries in the source; they are usually repeats but may differ in a detail not shown here. Identical values can stand only once.

T1: S100b (S100) (Homo sapiens, UniProt P04271)
T1 sequence (P04271 1-92): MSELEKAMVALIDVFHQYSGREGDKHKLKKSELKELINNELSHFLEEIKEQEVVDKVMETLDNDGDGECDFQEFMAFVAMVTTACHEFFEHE

T2: amphoterin (Ampho) (Homo sapiens, UniProt P09429)
T2 sequence (P09429 1-215): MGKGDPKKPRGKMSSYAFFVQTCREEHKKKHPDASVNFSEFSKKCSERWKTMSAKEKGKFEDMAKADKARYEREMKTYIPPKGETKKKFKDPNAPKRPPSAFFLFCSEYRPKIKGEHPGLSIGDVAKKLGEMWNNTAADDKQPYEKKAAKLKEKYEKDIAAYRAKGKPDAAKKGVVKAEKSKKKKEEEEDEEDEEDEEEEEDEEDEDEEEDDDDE


Assays:
[1] = tested on: transgenic mice expressing human Swedish mutant APP; assay: Mouse model of AD (APP transgenic mice): amyloid deposition and Morris water maze; assay type: in vivo; settings: treated for 3 months, vs vehicle and human IgG1
Experimental: Experiments were performed to evaluate whether TTP-4000 could affect amyloid formation and cognitive dysfunction in a mouse model of AD. The experiments utilized transgenic mice expressing the human Swedish mutant amyloid precursor protein (APP) under the control of the PDGF-B chain promoter. Over time, these mice generate high levels of the RAGE ligand, amyloid beta (Aβ).
The APP mice (male) used in this experiment were designed by microinjection of the human APP gene (with the Swedish and London mutations) into mouse eggs under the control of the platelet-derived growth factor B (PDGF-B) chain gene promoter. The mice were generated on a C57BL/6 background and were developed by Molecular Therapeutics Inc. Animals were fed ad libitum and maintained by brother sister mating. The mice generated from this construct develop amyloid deposits starting at 6 months of age. Animals were aged for 6 months and then maintained for 90 days and sacrificed for amyloid quantification.
APP transgenic mice were administered vehicle or TTP4000 every other day [qod (i.p.)] for 90 days starting at 6 months of age. At the end of the experiment, animals were sacrificed and examined for Aβ plaque burden in the brain (i.e., plaque number). A 6-month control APP group was used to determine the baseline of amyloid deposits. In addition, at the end of the study, the animals were subjected to behavioral (Morris water maze) analysis. The investigators were blinded to the study compounds. Samples were given to the mice at 0.25 ml/mouse/every other day.
For histological examination, the animals were anesthetized with an intraperitoneal injection (IP) of sodium pentobarbital (50 mg/kg). The animals were transcardially perfused with 4° C., phosphate-buffered saline (PBS) followed by 4% paraformaldehyde. The brains were removed and placed in 4% paraformaldehyde over night. The brains were processed to paraffin and embedded. Ten serial 30-μm thick sections through the brain were obtained. Sections were subjected to primary antibody overnight at 4° C. (Aβ peptide antibody) in order to detect the amyloid deposits in the brain of the transgenic animals (Guo et al., J. Neurosci., 22:5900-5909 (2002)). Sections were washed in Tris-buffered saline (TBS) and secondary antibody was added and incubated for 1 hour at room temperature. After washing, the sections were incubated as instructed in the Vector ABC Elite kit (Vector Laboratories) and stained with […] (DAB). The reactions were stopped in water and cover-slipped after treatment with xylene. The amyloid area in each section was determined with a computer-assisted image analysis system, consisting of a Power Macintosh computer equipped with a Quick Capture frame grabber card, Hitachi CCD camera mounted on an Olympus microscope and camera stand. NIH Image Analysis Software, v. 1.55 was used. The images were captured and the total area of amyloid was determined over the ten sections. A single operator blinded to treatment status performed all measurements. Summing the amyloid volumes of the sections and dividing by the total number of sections was done to calculate the amyloid volume.
For quantitative analysis, an enzyme-linked immunosorbent assay (ELISA) was used to measure the levels of human total Aβ, Aβtotal and Aβ1-42 in the brains of APP transgenic mice (Biosource International, Camarillo, Calif.). Aβtotal and Aβ1-42 were extracted from mouse brains by guanidine hydrochloride and quantified as described by the manufacturer. […]

[2] = tested on: recurrent diabetes in NOD/LtJ mice with syngeneic islet transplants; assay: Syngeneic islet transplantation in diabetic NOD mice; assay type: in vivo, mouse; settings: 300 ug LD + 100 ug qod ip
Text: Spontaneous autoimmune non-obese diabetic mice (NOD/LtJ) (12-25 weeks old) served as recipients for islet cells, while young pre-diabetic NOD/LtJ mice (6-7 weeks old) served as donors in syngeneic islet transplantation. Islets for transplantation were isolated as described above in Section A (Allogeneic Islet Transplantation).
Diabetic NOD/LtJ mice received islet grafts within 2 days of the diagnosis of diabetes. 500-600 freshly isolated islets (approximately 550 islet equivalents) from donor mice were picked up with an infusion set and transplanted into the subcapular space of the right kidney.
Test compounds were administered as soon as the islets were transplanted and continued for approximately 8 weeks.
Islet graft function was monitored by serial blood glucose measurements daily for the first 2 weeks after islet transplantation, followed by every other day thereafter. Reversal of diabetes was defined as blood glucose less than 200 mg/dl on two consecutive measurements. Percentage graft loss was determined when blood glucose exceeded 250 mg/dl on two consecutive measurements.

[3] = biological target: T1, S100b (S100); assay: In vitro ligand binding (ELISA) to immobilized S100b; settings: ligand 5 micrograms per well; FIG. 7
Experimental: (§1) For example, the RAGE fusion protein may be used in a binding assay to identify potential RAGE ligands. In one example embodiment of such a binding assay, a known RAGE ligand may coated onto a solid substrate (e.g., Maxisorb plates) at a concentration of about 5 micrograms per well, where each well contains a total volume of about 100 microliters (μL). The plates may be incubated at 4° C. overnight to allow the ligand to absorb. Alternatively, shorter incubation periods at higher temperature (e.g., room temperature) may be used. […] The RAGE fusion protein bound to the immobilized ligand may be detected in a variety of ways. […] The bound complex may be detected by adding the alkaline phosphatase substrate, para-nitrophenylphosphate (PNPP), and measuring conversion of PNPP to para-nitrophenol (PNP) as an increase in absorbance at 405 nm. […] In the absence of ligand (i.e., coating with only BSA) there was no increase in absorbance. […] Binding was detected by the addition of an immunodetection complex containing a monoclonal mouse anti-human IgG1 diluted 1:11,000 to a final assay concentration (FAC) of 21 ng/100 μL, a biotinylated goat anti-mouse IgG diluted 1:500, to a FAC of […], and an avidin-linked alkaline phosphatase. […]

[4] = biological target: T2, amphoterin (Ampho); assay: In vitro ligand binding (ELISA) to immobilized amphoterin; settings: ligand 5 micrograms per well; FIG. 7
Experimental: as §1

[5] = biological target: T3, amyloid-beta (Abeta) (Amyloid Beta (1-40)) (Homo sapiens, UniProt P05067); assay: In vitro ligand binding (ELISA) to immobilized amyloid-beta; settings: ligand 5 micrograms per well; FIG. 7
T3 construct: Amyloid Beta (1-40) from Biosource; purchased Biosource
T3 sequence (P05067 672-711): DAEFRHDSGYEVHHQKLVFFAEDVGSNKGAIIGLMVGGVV
Experimental: as §1

Molecule	Aβ plaques in the brain ([1]; FIG. 14A)	cognitive dysfunction (Morris water maze) ([1]; FIG. 14B)	day of graft loss, Mean [2]	day of graft loss, each animal ([2]; blood glucose exceeded 250 mg/dl)	binding to immobilized S100b (absorbance at 405 nm) [3]	binding to immobilized amphoterin (absorbance at 405 nm) [4]	binding to immobilized amyloid-beta (absorbance at 405 nm) [5]
mouse sRAGE: mouse soluble RAGE used as comparator in the AD mouse model (protein, UniProt Q62151 23-340, looked up, extracellular domain, mouse soluble RAGE used as comparator in the AD mouse model) extracellular domain: GQNITARIGEPLVLSCKGAPKKPPQQLEWKLNTGRTEAWKVLSPQGGPWDSVARILPNGSLLLPATGIVDEGTFRCRATNRRGKEVKSNYRVRVYQIPGKPEIVDPASELTASVPNKVGTCVSEGSYPAGTLSWHLDGKLLIPDGKETLVKEETRRHPETGLFTLRSELTVIPTQGGTHPTFSCSFSLGLPRRRPLNTAPIQLRVREPGPPEGIQLLVEPEGGIVAPGGTVTLTCAISAQPPPQVHWIKDGAPLPLAPSPVLLLPEVGHEDEGTYSCVATHPSHGPQESPPVSIRVTETGDEGPAEGSVGESGLGTLA	fewer Aβ plaques	less cognitive dysfunction	–	–	–	–	–
TTP-3000: three domain RAGE fusion protein: human RAGE V domain and interdomain linker (to residue 136) fused to CH2 and CH3 domains of human IgG1 (protein) QNITARIGEPLVLKCKGAPKKPPQRLEWKLNTGRTEAWKVLSPQGGGPWDSVARVLPNGSLFLPAVGIQDEGIFRCQAMNRNGKETKSNYRVRVYQIPGKPEIVDSASELTAGPSVFLFPPKPKDTLMISRTPEVTCVVVDVSHEDPEVKFNWYVDGVEVHNAKTKPREEQYNSTYRVVSVLTVLHQDWLNGKEYKCKVSNKALPAPIEKTISKAKGQPREPQVYTLPPSRDELTKNQVSLTCLVKGFYPSDIAVEWESNGQPENNYKTTPPVLDSDGSFFLYSKLTVDKSRWQQGNVFSCSVMHEALHNHYTQKSLSLSPGK	–	–	38.43 days	46 days and 42 days and 41 days and 34 days and 32 days and 30 days and 44 days	specifically interact	specifically interact	specifically interact
